Measured values as given in paper PMC10130748.
Residue numbers refer to the chain shown, from its start. Names and notes keep the numbering of the source.

T1: soluble recombinant integrin αvβ3, P06756;P05106
T1 chain 1: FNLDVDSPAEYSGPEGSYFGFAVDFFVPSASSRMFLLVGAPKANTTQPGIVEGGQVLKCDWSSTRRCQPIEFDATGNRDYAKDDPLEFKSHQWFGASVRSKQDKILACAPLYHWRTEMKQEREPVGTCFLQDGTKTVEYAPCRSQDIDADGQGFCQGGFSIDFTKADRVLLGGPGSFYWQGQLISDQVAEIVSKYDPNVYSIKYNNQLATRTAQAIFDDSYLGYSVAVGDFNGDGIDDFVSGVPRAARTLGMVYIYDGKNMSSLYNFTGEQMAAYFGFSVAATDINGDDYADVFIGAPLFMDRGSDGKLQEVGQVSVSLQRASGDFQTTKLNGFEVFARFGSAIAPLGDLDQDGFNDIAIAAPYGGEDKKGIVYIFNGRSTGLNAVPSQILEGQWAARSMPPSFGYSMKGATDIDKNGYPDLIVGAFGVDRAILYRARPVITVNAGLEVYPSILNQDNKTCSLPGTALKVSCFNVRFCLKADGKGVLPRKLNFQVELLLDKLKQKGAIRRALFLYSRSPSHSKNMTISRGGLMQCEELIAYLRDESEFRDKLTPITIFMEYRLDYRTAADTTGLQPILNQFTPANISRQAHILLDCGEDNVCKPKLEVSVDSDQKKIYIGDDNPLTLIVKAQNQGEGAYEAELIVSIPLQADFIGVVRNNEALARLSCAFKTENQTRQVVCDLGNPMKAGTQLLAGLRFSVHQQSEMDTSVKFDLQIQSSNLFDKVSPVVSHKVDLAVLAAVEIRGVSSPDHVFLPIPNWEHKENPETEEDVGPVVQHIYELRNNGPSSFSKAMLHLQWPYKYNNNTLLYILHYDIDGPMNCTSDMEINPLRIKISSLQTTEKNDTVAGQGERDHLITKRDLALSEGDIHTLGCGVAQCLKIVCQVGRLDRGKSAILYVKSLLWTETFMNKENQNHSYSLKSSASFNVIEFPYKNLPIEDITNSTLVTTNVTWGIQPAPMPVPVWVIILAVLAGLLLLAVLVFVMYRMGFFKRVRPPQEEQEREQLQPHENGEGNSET
T1 chain 2: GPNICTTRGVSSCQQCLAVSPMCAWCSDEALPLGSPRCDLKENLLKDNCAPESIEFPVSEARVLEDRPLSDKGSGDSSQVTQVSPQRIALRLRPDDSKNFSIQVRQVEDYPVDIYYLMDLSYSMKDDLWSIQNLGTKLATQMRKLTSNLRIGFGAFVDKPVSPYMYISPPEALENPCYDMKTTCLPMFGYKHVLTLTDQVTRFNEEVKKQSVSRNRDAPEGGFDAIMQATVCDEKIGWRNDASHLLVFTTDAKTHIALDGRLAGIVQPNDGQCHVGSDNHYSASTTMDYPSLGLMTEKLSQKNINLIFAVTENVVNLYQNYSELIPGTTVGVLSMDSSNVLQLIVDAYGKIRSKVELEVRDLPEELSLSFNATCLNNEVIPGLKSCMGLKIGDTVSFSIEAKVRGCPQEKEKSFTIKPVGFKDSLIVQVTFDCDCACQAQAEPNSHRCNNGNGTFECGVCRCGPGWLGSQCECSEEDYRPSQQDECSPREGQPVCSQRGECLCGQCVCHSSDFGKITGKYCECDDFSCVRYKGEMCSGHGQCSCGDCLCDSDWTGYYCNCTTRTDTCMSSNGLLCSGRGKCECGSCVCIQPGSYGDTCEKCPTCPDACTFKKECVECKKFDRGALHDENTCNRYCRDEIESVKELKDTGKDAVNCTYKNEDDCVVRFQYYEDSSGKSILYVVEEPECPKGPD

B1: CD62P (P-selectin) lectin domain (residues 1–117), wild type R54E; K55E (protein)
chain: WTYHYSTKAYSWNISRKYCQNRYTDLVAIQNKNEIDYLNKVLPYYSSYYWIGIEENNKTWTWVGTKKALTNEAENWADNEPNNKRNNEDCVEIYIKSPSAPGKWNDEHCLKKKHALC
B2: CD62P (P-selectin) lectin domain (residues 1–117), wild type R16E; K17E (protein)
chain: B1 chain with R16E, K17E, E54R, E55K
B3: CD62P (P-selectin) lectin domain (residues 1–117), wild type E88D (protein)
chain: B1 chain with E54R, E55K, E88D
B4: CD62P (P-selectin) lectin domain (residues 1–117), wild type K58E (protein)
chain: B1 chain with E54R, E55K, K58E
B5: CD62P (P-selectin) lectin domain (residues 1–117), wild type K66E; K67E (protein)
chain: B1 chain with E54R, E55K, K66E, K67E
B6: CD62P (P-selectin) lectin domain (residues 1–117), wild type K84E; R85E (protein)
chain: B1 chain with E54R, E55K, K84E, R85E

target: soluble recombinant integrin αIIbβ3, P08514;P05106; experiment: ELISA-type binding assay (OD450); details: chain shown with the change; CD62P 50 µg/ml; 1 mM Mn2+; parent: est. 0.54; read off a plot

| response [OD450] | Binder |
| --- | --- |
| 1.3 | B1 |
| 0.12 | B2 |
| 0.76 | B3 |
| 0.27 | B4 |
| 0.3 | B5 |
| 0.19 | B6 |

Target: T1, soluble recombinant integrin αvβ3, …
Experiment: ELISA-type binding assay (OD450)
Details: chain shown with the change; CD62P 50 µg/ml; 1 mM Mn2+; parent: est. 0.55; read off a plot

| response [OD450] | Binder |
| --- | --- |
| 1.2 | B1 |
| 0.14 | B2 |
| 0.8 | B3 |
| 0.31 | B4 |
| 0.35 | B5 |
| 0.24 | B6 |
